Among the data in paper PMC5302815 are binding values, retold here.

The target of the series is T1, FinR (Pseudomonas aeruginosa PAO1) (UniProt Q9HYK6).
T1 sequence: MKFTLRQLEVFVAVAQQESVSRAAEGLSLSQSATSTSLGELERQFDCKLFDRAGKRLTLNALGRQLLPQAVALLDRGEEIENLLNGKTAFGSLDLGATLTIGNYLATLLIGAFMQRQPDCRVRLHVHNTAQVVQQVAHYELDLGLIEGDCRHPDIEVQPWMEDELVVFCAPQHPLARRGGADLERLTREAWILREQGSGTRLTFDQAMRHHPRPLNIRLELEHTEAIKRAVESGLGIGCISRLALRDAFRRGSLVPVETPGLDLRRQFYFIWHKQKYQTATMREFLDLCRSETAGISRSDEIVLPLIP
Kind of series: EMSA. To be noted: EMSA: 20 mM Tris-HCl pH 8.0, 50 mM KCl, 4 mM MgCl2, 0.5 mM EDTA, 0.02 mg/ml BSA, 5 mM DTT, 10% glycerol, 200 ng poly(dI-dC), 3 fmol probe in 25 ul, 25 C ….

Turning to “AGACGCTCTCCTGCTGGGCCACGGCGACGAACACCTCGAGCTGGCGGAGGGTGAATTTCATCCAGGCTTCCTCGTCTAGAGCGAAAGGCCCCGCGACATTTTGCCGTTCCGTCGGCGGGGTTGGCTCGGTTATCCTTGCGCCCCGTCCGCGGGAGCGATGGGAGCCCTCGGCGGCCGGCGGCCGACCGATATCGTGTTATCCC (double strand) [EBI62-EBI69 fragment (without FinR site)]”, the binding result was “no binding”.

As to “CGATATCGTGTTATCCCATATCCATATTCTGGATAAGCATTATCCAGACAATTCATTTTGCGGATATTTTGGCAACCGATAAAATGCCGCGCAACTGCGTCACGTCTGCTGCTGTTGGTGTGCGCCCGCGTTTTCCTAGGAGTCTTTGATGAGCAATCTGTACACCGAGCGCGTTCTCAGCGTGCACCACTGGAACGACACCCTGTTCAGCT (double strand) [EBI61-EBI70 fragment (with FinR site)]”, the binding entry was “binds”.
